Reference: US20230064703A1

Assays:
[1] = molecular target: human GITR expressed on Cho-K1 cells (human) (UniProt Q9Y5U5); experiment: FACS, chimeric antibody on GITR/Cho-K1 cells, geometric mean, 4-parameter fit
[2] = molecular target: human GITR expressed on Cho-K1 cells (human) (UniProt Q9Y5U5); experiment: FACS, Cho-K1 cells expressing human GITR, mouse mAb, iFluor 647 anti-mouse IgG detection
[3] = molecular target: human GITR expressed on Cho-K1 cells (human) (UniProt Q9Y5U5); experiment: FACS binding assay with GITR/Cho-K1, humanized antibody

human GITR expressed on Cho-K1 cells (human), sequence (Q9Y5U5 26-241): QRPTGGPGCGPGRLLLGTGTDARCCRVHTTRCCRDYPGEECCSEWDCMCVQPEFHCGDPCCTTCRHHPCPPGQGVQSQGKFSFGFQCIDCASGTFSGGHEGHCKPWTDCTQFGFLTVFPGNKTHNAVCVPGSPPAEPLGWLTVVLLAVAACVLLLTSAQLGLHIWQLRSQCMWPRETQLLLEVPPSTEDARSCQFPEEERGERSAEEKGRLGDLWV

Row | EC50 [2] [µg/mL] | EC50 [3] [µg/mL] | Binder | other results
1 | – | – | chimeric antibody 225A8D9 (human IgG1) (antibody, V domains shown) VH: QVQLQQSGPELVKPGASVKISCKASGYAFSSSWMNWVKQRPGKGLEWIGRIYPGDGNINYDGKFKGEATLTADKSSSTAYIQLSSLTSEDSAVYFCARSAWLGKTYVMDYWGQGTSVTVSS VL: EIVVTQSPAITAASLGQKVTITCSASSSVTYMNWYQQKSGTSPKPWIYEISKLASGVPAHFSGSGSGTSYSLTISSLEAEDAAIYYCQQWNFPFTFGSGTKVEIRR | EC50 [1]: 0.252 µg/mL
2 | 0.0026 | – | anti-GITR mouse monoclonal antibody 225A8D9 (antibody, V domains shown) VH: QVQLQQSGPELVKPGASVKISCKASGYAFSSSWMNWVKQRPGKGLEWIGRIYPGDGNINYDGKFKGEATLTADKSSSTAYIQLSSLTSEDSAVYFCARSAWLGKTYVMDYWGQGTSVTVSS VL: EIVVTQSPAITAASLGQKVTITCSASSSVTYMNWYQQKSGTSPKPWIYEISKLASGVPAHFSGSGSGTSYSLTISSLEAEDAAIYYCQQWNFPFTFGSGTKVEIR | –
3 | 0.141 | – | anti-GITR mouse monoclonal antibody 274C7H2 (antibody, V domains shown) VH: QVQLQQSGAELAKPGASVKLSCKASGYTFTSYWMHWVKQRPGQGLEWIGYINPSSGYTKYNQKFKDKATLTADKSSSTAYMQLSSLTYEDSAVYYCARNPSYDYYAMDYWGQGTSVTVSS VL: QAVVTQESALTTSPGETVTLTCRSSTGAVTTSNYANWVQEKPDHLFTGLIGGTNNRAPGVPARFSGSLIGDKAALTITGAQTEDEAIYFCALWYSNHFIFGSGTKVTVL | –
4 | – | – | chimeric antibody 274C7H2 (human IgG1) (antibody, V domains shown) VH: QVQLQQSGAELAKPGASVKLSCKASGYTFTSYWMHWVKQRPGQGLEWIGYINPSSGYTKYNQKFKDKATLTADKSSSTAYMQLSSLTYEDSAVYYCARNPSYDYYAMDYWGQGTSVTVSS VL: QAVVTQESALTTSPGETVTLTCRSSTGAVTTSNYANWVQEKPDHLFTGLIGGTNNRAPGVPARFSGSLIGDKAALTITGAQTEDEAIYFCALWYSNHFIFGSGTKVTVLR | EC50 [1]: 331 µg/mL
5 | 0.000522 | – | anti-GITR mouse monoclonal antibody 225H7D12 (antibody, V domains shown) VH: QVQLQQSGAEVMKPGASVKLSCKTTGYRFTGYWIEWVKQRPGHGLEWIGEILPGSGVSNNNEKFRDKATFTADTSSNTAYIQLSSLTTDDSAIYYCARKASYYTMDYWGQGTSVTVSS VL: QIVLTQSPAIMSASLGERVTMTCTASSSVSSFYFHWYQQKPGSSPKLWIYSISNLASGVPTRFSGSGSGTSYSLTISSMEAEDAATYYCHQYHRSPRTFGGGTKLEIK | –
6 | 0.000454 | – | anti-GITR mouse monoclonal antibody 223F12C4 (antibody, V domains shown) VH: QVQLQQSGAELVKPGASVKVSCKASGYSFTSYWIHWVKQRPGQGLEWIGRIHPSDGDIDHNEKFKGKATLTVDKSSSTAYMQLTSLTSEDSAVYYCLCYIMDYWGQGTSVTVSS VL: DIQMNQSPSSLSASLGDTIAITCHASQNINVWLSWYQQKPGNIPKLLIYKAAKLQTGVPSRFSGSGSGTGFTLTISSLQPEDIATYYCHQGQDYPLTFGAGTKLELK | –
7 | – | – | chimeric antibody 223F12C4 (human IgG1) (antibody, V domains shown) VH: QVQLQQSGAELVKPGASVKVSCKASGYSFTSYWIHWVKQRPGQGLEWIGRIHPSDGDIDHNEKFKGKATLTVDKSSSTAYMQLTSLTSEDSAVYYCLCYIMDYWGQGTSVTVSS VL: DIQMNQSPSSLSASLGDTIAITCHASQNINVWLSWYQQKPGNIPKLLIYKAAKLQTGVPSRFSGSGSGTGFTLTISSLQPEDIATYYCHQGQDYPLTFGAGTKLELKR | EC50 [1]: 1.59 µg/mL
8 | 0.000931 | – | anti-GITR mouse monoclonal antibody 223H11H1 (antibody, V domains shown) VH: EVQLQQSGPELVKPGASVKISCKASGYTFTAHYMNWVKKSQGKSLEWIGDINPDNGIIRYNQKFKDKATLTVDKSSSTVFLEFRSLASEDSAVYYCARREALDYWGQGSSVTVSS VL: DVLMTQIPLSLTVSLGDQASISCRSSQSIVYSNGKVYLNWYQQKPGQSPKLLIYKVSDRFSGVPDRFSGSGSGTDFTLKINRVEAEDLGVYYCLQGSHIPWTFGGGTKLEIK | –
9 | – | – | chimeric antibody 384H3H11 (human IgG1) (antibody, V domains shown) VH: QVQLKQSGPGLVQPSQSLSITCTVSGFSLTSYGVHWVRQSPGKGLEWLGVIWSGGSTDYNAAFISRLSISKDNSKSQVFFKMNSLQANDTAIYYCARIGLRSFAYWGQGTLVTVSA VL: DIVMTQSPSSLTVTAGEKVTMSCKSSQSLLNSGNQKNYLTWYQQKPGQPPKLLIYWASTRESGVPDRFTGSGSGTDFTLTISSVQAEDLAVYYCQNDYSYPFTFGSGTKLEIKR | EC50 [1]: 219 µg/mL
10 | – | – | chimeric antibody 172H7B9(H-La) (human IgG1) (antibody, V domains shown) VH: QVTLKESGPGILQSSQTLSLTCSFSGFSLSPSGMGVTWIRQPSGKGLEWLAHIYWDDVKRYNPSLKSRLTISKDTSRNQVFLKITGVDTADTATYYCARRGSYSDYGGWSFDVWGTGTTVTVSS VL: DIVMTQSPSSLSVSAGEKVTMSCKSSQSLFNSGNQKNYLAWYQQKPGQPPKLLIYGASTRESGVPDRFTGSGSGSDFTLTISSVQAEDLAVYYCQNDHSYPPTFGSGTKLEIKR | EC50 [1]: 0.0499 µg/mL
11 | 0.00497 | – | anti-GITR mouse monoclonal antibody 384H3H11 (antibody, V domains shown) VH: QVQLKQSGPGLVQPSQSLSITCTVSGFSLTSYGVHWVRQSPGKGLEWLGVIWSGGSTDYNAAFISRLSISKDNSKSQVFFKMNSLQANDTAIYYCARIGLRSFAYWGQGTLVTVSA VL: DIVMTQSPSSLTVTAGEKVTMSCKSSQSLLNSGNQKNYLTWYQQKPGQPPKLLIYWASTRESGVPDRFTGSGSGTDFTLTISSVQAEDLAVYYCQNDYSYPFTFGSGTKLEIK | –
12 | – | 0.107 | humanized antibody 45F1F3 VH1.1 + VL1 (antibody, V domains shown) VH: QVQLQESGPGLVKPSQTLSLTCTVTGYSITIDYAWNWIRQPPGKGLEWIGYISNSGYTSYNPSLKSRVTFSRDTSKNQFSLKLSSVTAADTAVYYCTRSGHYDLFDYWGQGTTVTVSS VL: DVVMTQSPLSLPVTLGQPASISCKSSQSLFDRDGKTYLSWFQQRPGQSPRRLIYLVSNLDSGVPDRFSGSGSGTDFTLKISRVEAEDVGVYYCWQGTHFPYTFGGGTKVEIK | –
13 | – | 0.0558 | humanized antibody 270C5C10 VH1.4 + VL1 (antibody, V domains shown) VH: QVQLVQSGAEVKKPGASVKVSCKASGYTFTDNYMNWARQSPGQSLEWIGDINPNNGGSRYKEKFKDRATLTVDTSIRTAYMELSRLRSDDTAVYYCANPGSYGFAYWGQGTLVTVSS VL: DVVMTQSPLSLPVTLGQPASISCKSSQSLLDSDGRTYLNWFQQRPGQSPRRLIYLVSQLDSGVPDRFSGSGSGTDFTLKISRVEAEDVGVYYCWQGTHFPWTFGGGTKLEIK | –
14 | – | 0.0424 | humanized antibody 270C5C10 VH1.2 + VL1 (antibody, V domains shown) VH: QVQLVQSGAEVKKPGASVKVSCKASGYTFTDNYMNWVRQAPGQSLEWIGDINPNNGGSRYKEKFKDRATLTVDTSIRTAYMELSRLRSDDTAVYYCANPGSYGFAYWGQGTLVTVSS VL: DVVMTQSPLSLPVTLGQPASISCKSSQSLLDSDGRTYLNWFQQRPGQSPRRLIYLVSQLDSGVPDRFSGSGSGTDFTLKISRVEAEDVGVYYCWQGTHFPWTFGGGTKLEIK | –
15 | – | 0.0755 | humanized antibody 225H7D12 VH1.1 + VL1.2 (antibody, V domains shown) VH: QVQLVQSGAEVKKPGASVKVSCKTTGYRFTGYWIEWVRQAPGQGLEWIGEILPGSGVSNNNEKFRDRATMTADTSISTAYMELSRLRSDDTAVYYCARKASYYTMDYWGQGTLVTVSS VL: DIQMTQSPSSLSASVGDRVTITCTASSSVSSFYFHWYQQKPGKAPKLWIYSISNLASGVPSRFSGSGSGTSYTLTISSLQPEDFATYYCHQYHRSPRTFGGGTKLEIK | –
16 | – | 0.082 | humanized antibody 225H7D12 VH1.3 + VL1.2 (antibody, V domains shown) VH: QVQLVQSGAEVKKPGASVKVSCKASGYRFTGYWIEWVKQAPGQGLEWIGEILPGSGVSNNNEKFRDRATMTADTSINTAYMELSRLRSDDTAVYYCARKASYYTMDYWGQGTLVTVSS VL: DIQMTQSPSSLSASVGDRVTITCTASSSVSSFYFHWYQQKPGKAPKLWIYSISNLASGVPSRFSGSGSGTSYTLTISSLQPEDFATYYCHQYHRSPRTFGGGTKLEIK | –
17 | 0.000199 | – | anti-GITR mouse monoclonal antibody 204C10G12 (antibody, V domains shown) VH: QVQLQQPGAELVKPGASVKMSCKASGYTFTSYWITWVKQRPGQGLEWIGDIYPGSDSTNYNEKFKNKATLTVDTSSSTAYMQLSSLTSEDSAVYYCARGDDFWYFDVWGTGTTVTVSS VL: DVLMTQTPLSLPVSLGDQASISCRSSQSIVHSNGNTYLEWYLQKPGQSPKLLIYKVSNRFSGVPDRFSGSGSGTDFTLKISRVEAEDLGVYYCFQGSHVPLTFGAGTKLELK | –
18 | – | – | chimeric antibody 204C10G12 (human IgG1) (antibody, V domains shown) VH: QVQLQQPGAELVKPGASVKMSCKASGYTFTSYWITWVKQRPGQGLEWIGDIYPGSDSTNYNEKFKNKATLTVDTSSSTAYMQLSSLTSEDSAVYYCARGDDFWYFDVWGTGTTVTVSS VL: DVLMTQTPLSLPVSLGDQASISCRSSQSIVHSNGNTYLEWYLQKPGQSPKLLIYKVSNRFSGVPDRFSGSGSGTDFTLKISRVEAEDLGVYYCFQGSHVPLTFGAGTKLELKR | EC50 [1]: 19400 µg/mL
19 | 0.000508 | – | anti-GITR mouse monoclonal antibody 45F1F3 (antibody, V domains shown) VH: DVQLQESGPGLVKPSQSLSLTCTVTGYSITIDYAWNWIRQFPGNKLEWMGYISNSGYTSYNPSLKSRISFTRDTSKNQFFLQLNSVTPEDSATYYCTRSGHYDLFDYWGQGTTLTVSS VL: DVVMTQAPLTLSVTIGQPASISCKSSQSLFDRDGKTYLSWLLERPGQSPKRLIYLVSNLDSGVPDRFTGSGSGTDFTLKISRVEAEDLGVYYCWQGTHFPYTFGGGTKVEMK | –
20 | – | 0.0704 | humanized antibody 45F1F3 VH1.4 + VL1.1 (antibody, V domains shown) VH: DVQLQESGPGLVKPSQTLSLTCTVTGYSITIDYAWNWIRQPPGKGLEWMGYISNSGYTSYNPSLKSRITFSRDTSKNQFFLKLSSVTAADTAVYYCTRSGHYDLFDYWGQGTTVTVSS VL: DVVMTQSPLSLPVTLGQPASISCKSSQSLFDRDGKTYLSWLLQRPGQSPRRLIYLVSNLDSGVPDRFSGSGSGTDFTLKISRVEAEDVGVYYCWQGTHFPYTFGGGTKVEIK | –
21 | – | 0.106 | humanized antibody 45F1F3 VH1.3 + VL1.1 (antibody, V domains shown) VH: QVQLQESGPGLVKPSQTLSLTCTVTGYSITIDYAWNWIRQPPGKGLEWMGYISNSGYTSYNPSLKSRVTISRDTSKNQFFLKLSSVTAADTAVYYCTRSGHYDLFDYWGQGTTVTVSS VL: DVVMTQSPLSLPVTLGQPASISCKSSQSLFDRDGKTYLSWLLQRPGQSPRRLIYLVSNLDSGVPDRFSGSGSGTDFTLKISRVEAEDVGVYYCWQGTHFPYTFGGGTKVEIK | –
